# What was measured:
# [1] = molecular target: FcγRIIa (H) variant (UniProt P12318); experiment: in vitro binding, method not stated for the single mutant
# [2] = molecular target: FcγRIIb (UniProt P31994); experiment: as above
# Sequence of UniProt P31994 (P31994 43-217 limits assumed): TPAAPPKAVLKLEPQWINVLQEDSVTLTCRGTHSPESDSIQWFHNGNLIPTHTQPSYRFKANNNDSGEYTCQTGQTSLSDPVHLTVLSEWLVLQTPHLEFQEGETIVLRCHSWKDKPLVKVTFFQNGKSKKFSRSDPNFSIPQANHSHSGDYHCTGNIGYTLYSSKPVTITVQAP
# Sequence of UniProt P12318 (P12318 34-217 limits assumed, change not shown): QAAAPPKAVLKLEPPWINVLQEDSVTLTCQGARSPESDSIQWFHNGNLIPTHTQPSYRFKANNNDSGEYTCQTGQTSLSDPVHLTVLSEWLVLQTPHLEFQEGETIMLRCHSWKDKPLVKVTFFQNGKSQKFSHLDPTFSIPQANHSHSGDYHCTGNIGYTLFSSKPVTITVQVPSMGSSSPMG
fold reduction of binding against wild type [1] [fold],fold reduction of binding against wild type [2] [fold],fold improvement of binding against wild type [2] [fold],Substance
100,100,–,Fc variant D270N (single mutation) (antibody)
–,–,4,Fc variant K326E (single mutation) (antibody)

# From patent publication US20130108623A1
